How the values were obtained:
[1] = tested on: primary tumors and lung lesions; assay: IHC staining of primary tumors and lung samples for proliferation and apoptosis markers; type: in vivo, mice; conditions: versus PBS
Source text: FIGS. 7A-7D are graphs indicating the percentage of Ki67^+ (FIGS. 7A and 7B) and cleaved caspase-3^+ (FIGS. 7C, 7D) cells counted in primary tumor (FIGS. 7A, 7C) and spontaneous lung metastasis (FIGS. 7B, 7D) samples from mice treated with r-Tinagl1(711, 721, 731, 741) or PBS (710, 720, 730, 740) collected for H&E and IHC staining with indicated antibodies.
To address how Tinagl1 inhibits primary tumor growth and metastasis, primary tumors and corresponding lung samples were stained for proliferation and apoptosis markers. […] Consistent results were also observed in the staining of the tissues collected from the mice injected with the SUM159-M1a cells.
TIC staining was performed as previously described (Wan et al., 2014). Briefly, Paraffin-embedded primary tumor or lung samples were sliced into 4 μm thickness. The slides were baked overnight at 60° C. Next, the tissue slides were washed with PBS after deparaffinization and hydration and then boiled in citrate buffer at 100° C. for 40 min. After treated with 3% H2O2 for 30 min to block endogenous peroxidase, slides were incubated at 4° C. overnight with Ki67 (Leica Biosystem, Ki67-MM1-L-CE-S), cleaved caspase-3 (Cell signaling, 9661S), p-EGFR (Cell signaling, 3777), p-FAK (Cell signaling, 8556), CD31 (Cell signaling, 77699), -SMA (Sigma, A5228), or Tinagl1 (Sigma, HPA048695) antibodies. […]

[2] = tested on: primary tumors and lung metastases; assay: IHC staining of tumor samples from treatment groups (Ki67, Casp3, CD31, α-SMA); type: in vivo, NSG female mice
Experimental: FIGS. 17F-17I are graphs quantifying positives cells per field where primary tumors were collected from indicated treatment groups from FIG. 17D and then subjected to IHC staining with indicated antibodies, including % Ki67^+ (17F), % Casp3^+ (17G), % CD31^+ (17H), and % α-SMA^+ (17I).
TIC staining was performed as previously described (Wan et al., 2014). Briefly, Paraffin-embedded primary tumor or lung samples were sliced into 4 μm thickness. The slides were baked overnight at 60° C. Next, the tissue slides were washed with PBS after deparaffinization and hydration and then boiled in citrate buffer at 100° C. for 40 min. After treated with 3% H2O2 for 30 min to block endogenous peroxidase, slides were incubated at 4° C. overnight with Ki67 (Leica Biosystem, Ki67-MM1-L-CE-S), cleaved caspase-3 (Cell signaling, 9661S), p-EGFR (Cell signaling, 3777), p-FAK (Cell signaling, 8556), CD31 (Cell signaling, 77699), -SMA (Sigma, A5228), or Tinagl1 (Sigma, HPA048695) antibodies. Following washes with PBS, slides were then incubated with HRP-conjugated goat anti-rabbit or mouse secondary antibody (Genetech) for 30 min at room temperature. Sections were stained by DAB and then counterstained with Gill hematoxylin according to manufacturer's instructions.

SUM159-M1a cells = assay: Cell adhesion assay of SUM159-M1a cells on coated plates (luciferase); type: cell-based, human
Experimental: FIG. 15A is an graph of attached cells quantified by luciferase assay where a 96-well plate was first coated with 10 μg/ml of FN, then SUM159-M1a cells were incubated with 10 μg/ml of indicated antibodies or r-Tinagl1 at 4 C for 30 min, after when cells were seeded on the plate at 30 k cells per well, and 30 min after seeding, the plate was washed with PBS and quantified by luciferase assay.
Integrin α5β1 and αvβ1 are the major receptors for FN, and the interaction between FN and the integrin receptors triggers the activation of the downstream FAK signal pathway. To test whether Tinagl1 may interfere with cell adhesion mediated by the interaction between FN and its receptors integrin α5β1 and αvβ1, SUM159-M1a cells that were pre-incubated with r-Tinagl1 were seeded on the plates coated with FN or other ECM proteins for various period of time (5 min to 2 hours) and the number of adhered cells were quantified after washing. […] Next, SUM159-M1a cells that were pre-incubated with r-Tiangl1 or various integrin-blocking antibodies were seeded on the plate coated with FN, and relative numbers of attached cells were measured.
96-wells were coated with 10 μg/ml of indicated proteins. […] Cells were then lysed, and luciferase activity which represents cell number was measured using the Glomax 96 microplate luminometer (Promega). […]

EGFR and FAK pathways = assay: EGFR and FAK pathway activation in SUM159-M1a cells on FN (WB, FIG. 12); type: cell-based, human
Experimental: FIG. 12 is an image of WB analyses where a 6-well plate was coated with 10 μg/ml of FN or 10 μg/ml of FN+r-Tinagl1, then SUM159-M1a cells were serum starved for 24 hr, and then seeded on the plate with the media contain 10% FBS and 1 ng/ml of EGF, and then 3 hr after seeding, the cells were treated with […] FAK inhibitor 14 (FAKi) for 2 hr, followed by 1 hr treatment of 100 nM Erlotinib (Erlo), 1 μg/ml r-Tinagl1 alone or combined, and finally the cells were treated with 1 ng/ml of EGF for another 10 min, and then collected for WB analysis.
Furthermore, p-AKT and p-ERK levels were lowered in r-Tinagl1 treated samples that samples treated with either FAK inhibitor 14 (FAKi) and or EGFR inhibitor Erlotinib (Erlo) alone.

B1: r-Tinagl1: full length recombinant human Tinagl1 with 6×His tag at the C-terminus [SEQ ID NO.: 24], expressed in HEK293T cells (protein, listed as Homo sapiens)
chain: MWRCPLGLLLLLPLAGHLALGAQQGRGRRELAPGLHLRGIRDAGGRYCQEQDLCCRGRADDCALPYLGAICYCDLFCNRTVSDCCPDFWDFCLGVPPPFPPIQGCMHGGRIYPVLGTYWDNCNRCTCQENRQWQCDQEPCLVDPDMIKAINQGNYGWQAGNHSAFWGMTLDEGIRYRLGTIRPSSSVMNMHEIYTVLNPGEVLPTAFEASEKWPNLIHEPLDQGNCAGSWAFSTAAVASDRVSIHSLGHMTPVLSPQNLLSCDTHQQQGCRGGRLDGAWWFLRRRGVVSDHCYPFSGRERDEAGPAPPCMMHSRAMGRGKRQATAHCPNSYVNNNDIYQVTPVYRLGSNDKEIMKELMENGPVQALMEVHEDFFLYKGGIYSHTPVSLGRPERYRRHGTHSVKITGWGEETLPDGRTLKYWTAANSWGPAWGERGHFRIVRGVNECDIESFVLGVWGRVGMEDMGHHVDHHHHHH
modifications: C-terminal 6xHis tag
- Ki67+ cells [1]: significantly fewer
- cleaved caspase-3+ apoptotic cells [1]: no difference
- CD31+ endothelium ([2]; primary and lung metastasis): significantly reduced
- tumor cell proliferation (Ki67 staining) ([2]; primary tumor and lung metastatic nodules): strong anti-proliferative effects on both primary tumors and lung metastases
- cell adhesion on FN or other ECM proteins (SUM159-M1a cells; 10 μg/ml r-Tinagl1 pre-incubation, 5 min to 2 hours): blocked cell adhesion mediated by FN but not other ECM proteins
- cell adhesion on FN (antibody blocking assay) (SUM159-M1a cells; 10 μg/ml, 30 min after seeding): significantly reduced cell adhesion
- activation of EGFR and FAK pathways (p-EGFR, p-FAK, p-ERK, p-AKT) (EGFR and FAK pathways; 1 μg/ml r-Tinagl1, 1 hr): inhibited the activation of both EGFR and FAK pathways
- p-AKT and p-ERK levels versus FAKi or Erlo alone (EGFR and FAK pathways; FAKi, 100 nM Erlo, 1 μg/ml r-Tinagl1): lowered

Reference: patent US20210379147A1, “METHOD AND SYSTEM FOR TREATING CANCER UTILIZING TINAGL1” (The Trustees of Princeton University, priority 2018, published 2021)
